Patent publication US6586236

Molecular target: goat anti-mouse kappa light chain IgG (Southern Biotech)
Assay: phage panning of 1:1 W100/R100 mixture on coated wells, oligonucleotide hybridization of plaque lifts

## DB3 R100 VH/κ-gpVIII fusion polypeptide displayed on JC-M13-88 phage (from UniProt P69541 24-73) (scFv)
  % DB3 R100 variant in DB3 phage eluted, 2 rounds of panning: 82.1%
  % DB3 R100 variant in DB3 phage eluted, 3 rounds of panning: 79.2%
